Results published in patent US20250230224A1.

How the values were obtained:
BoNT/F2 = experiment: KinExA, IgG
BoNT/F6 = experiment: KinExA, IgG
BoNT/F5 = experiment: KinExA, IgG
BoNT/F4 = experiment: KinExA, IgG
BoNT/F7 = experiment: KinExA, IgG
BoNT/F3 = experiment: KinExA, IgG
[1] = biological target: Mosaic botulinum neurotoxin BoNT/DC (Clostridium botulinum); experiment: KinExA flow fluorimetry, solution phase, IgG
[2] = biological target: Mosaic botulinum neurotoxin BoNT/CD (Clostridium botulinum); experiment: KinExA flow fluorimetry, solution phase, IgG

B1: Hu6F13.4 IgG (antibody, V domains shown)
VH: QVQLVQSGAEVKKPGASVKVSCKASGYSFTSYWMHWVRQAPGQGLEWIGFINPINGGIIYNEKFRFRATLTVDTSISTAYMELSRLRSDDTAVYYCARAGYYGSSRHFDVWGQGTLLTVSS
VL: ETTLTQSPSSLSASVGDRVTITCRASQGIRNYLAWYQQKPGKAPKLLIYDASNLETGVPSRFSGSGSGTDFTFTISSLQPEDFATYYCLQTSSTPWTFGQGTKVDIKR
For B1, the Kd (BoNT/F2) was 0.216 nM, the Kd (BoNT/F6) was 0.172 nM and the Kd (BoNT/F5) was 0.0172 nM. For the same binder, the Kd (BoNT/F4) was 0.405 nM, the Kd (BoNT/F7) was 0.206 nM and the Kd (BoNT/F3) was 0.297 nM.

B2: Hu6F11 IgG (antibody, V domains shown)
VH: EVQLVESGGGLVKPGGSLRLSCAASGFTFSNYGMSWVRQAPGKGLEWVASISSGGSYIYYPDSVKGRFTISRDNAKNSLYLQMNSLRAEDTAVYYCARRKGYDSLYWYFDVWGQGTLVTVSS
VL: DVVMTQSPSSLSAFVGDRVTITCRASQGIRSYLAWFQQKPGKAPKLLIYAASTLQSGVPSRFSGSGSGTEFTLTVSGLQPEDFATYYCQQYNSYPLTFGGGTRLEIKR
B2 showed a Kd (BoNT/F2) of 0.0283 nM, a Kd (BoNT/F6) of 0.0037 nM and a Kd (BoNT/F5) of 0.0218 nM. For the same binder, the Kd (BoNT/F4) was 0.0137 nM, the Kd (BoNT/F7) was 0.00334 nM and the Kd (BoNT/F3) was 0.00803 nM.

B3: 4C4.4 IgG (antibody, V domains shown)
VH: QVQLQESGPGLVKPSQTLSLTCTVSGASISNSPYFWNWFRQFPGKGLEWIGYIYWSGSTNYNPSLKSRLAMSVDTSKNQFSLKLTSATAADTAVYYCARDQGGGTVVKENWFDPWGQGTLVTVSS
VL: DIVMTQSPSSLSASVGDRLTMTCQASQDIGKHLNWYQQKAGKPPKLLIYGASNLKTGVPSRFSAGVSWTDFTFTISNVQPEDVATYYCQQSYSTPPTFGQGTKVEIKR
B3 was tested, and the Kd [1] was 0.087 nM and the Kd [2] was 0.016 nM.

B4: 6F5.4 IgG (antibody, V domains shown)
VH: EVQLVPSGGNLVQPGGSLRLSCAATGPIDYHWMTWVRQAPGQGLEWVANINLDGTEKFYVDSVKGRFTVSRDNRKSSVFLQMNNLRVDDTAVYYCARLQWGERDGWLSPWGQGTLVTVSS
VL: DIVMTQSPPSLSASVGDRVRLTCRASQSIGRSLNWYQQKPGKAPKLLIYDASALHSGVPSRFSGSGSGTDFTLTISGLQPEDFATYYCQQTNDLPVTFGGGTKLEIKR
With B4 the Kd (BoNT/F2) was 0.00016 nM, the Kd (BoNT/F6) was 0.0004 nM and the Kd (BoNT/F5) was 0.00588 nM. For the same binder, the Kd (BoNT/F4) was 0.0258 nM, the Kd (BoNT/F7) was 0.00374 nM and the Kd (BoNT/F3) was 0.00519 nM.

B5: 8DC4.4 IgG (antibody, V domains shown)
VH: QVQLQESGPGLVKPSQTLSLTCTVSGGSISSDNYFWTWIRQSPGKGLEWLGHISYSGRSYTNLSLKRRLTISVDTSKNQFSLNLNSVTAADTAVYYCARERLPPGRGYDMDVWGQGTTVTVSS
VL: DIVMTQSPSSVSASVGDRVTITCRASRDISIYLNWYQQKPGKAPKLLIYAASNLETGVPSRFSGSGSGTDFTLTISSLQPEDVATYYCQQSYNTPLTFGGGTKLEIKR
For B5, the Kd [1] was 0.146 nM and the Kd [2] was 0.117 nM.
